Measured values from patent publication US20250171562A1 (ALK ABELL, published 2025).

B1: CIgG4F3A1(G4S)1 (Fc fusion)
chain 1: GPPCPPCPAPEFLGGPSVFLFPPKPKDTLMISRTPEVTCVVVDVSQEDPEVQFNWYVDGVEVHNAKTKPREEQFNSTYRVVSVLTVLHQDWLNGKEYKCKVSNKGLPSSIEKTISKAKGQPREPQVYTLPPCQEEMTKNQVSLWCLVKGFYPSDIAVEWESNGQPENNYKTTPPVLDSDGSFFLYSRLTVDKSRWQEGNVFSCSVMHEALHNHYTQKSLSLSLGKGGGGSDVQLQESGGGLVQAGGSLKLSCAASRGSLSRWDVAWFRQAPGKERSFVTRISWSGTTSYYADAVKGRFAISRDNAKNTVYLQMNSLKPEDTAVYYCAVALYGNRGYYDVNAHSYWGQGTQVTVS
chain 2: GPPCPPCPAPEFLGGPSVFLFPPKPKDTLMISRTPEVTCVVVDVSQEDPEVQFNWYVDGVEVHNAKTKPREEQFNSTYRVVSVLTVLHQDWLNGKEYKCKVSNKGLPSSIEKTISKAKGQPREPQVCTLPPSQEEMTKNQVSLSCAVKGFYPSDIAVEWESNGQPENNYKTTPPVLDSDGSFFLVSRLTVDKSRWQEGNVFSCSVMHEALHNHYTQKSLSLSLGKGGGGSEVQLLESGGGLVQPGGSLRLSCAASGFTFGNYDMAWVRQAPGKRPEWVSSIDTGGDITHYADSVKGRFTISRDNAKNTLYLQMNSLRPEDTAVYWCATDEEYALGPNEFDYYGQGTLVTVSS
B2: CIgG4F3A1(G4S)2 (Fc fusion)
chain 1: GPPCPPCPAPEFLGGPSVFLFPPKPKDTLMISRTPEVTCVVVDVSQEDPEVQFNWYVDGVEVHNAKTKPREEQFNSTYRVVSVLTVLHQDWLNGKEYKCKVSNKGLPSSIEKTISKAKGQPREPQVYTLPPCQEEMTKNQVSLWCLVKGFYPSDIAVEWESNGQPENNYKTTPPVLDSDGSFFLYSRLTVDKSRWQEGNVFSCSVMHEALHNHYTQKSLSLSLGKGGGGSGGGGSDVQLQESGGGLVQAGGSLKLSCAASRGSLSRWDVAWFRQAPGKERSFVTRISWSGTTSYYADAVKGRFAISRDNAKNTVYLQMNSLKPEDTAVYYCAVALYGNRGYYDVNAHSYWGQGTQVTVS
chain 2: GPPCPPCPAPEFLGGPSVFLFPPKPKDTLMISRTPEVTCVVVDVSQEDPEVQFNWYVDGVEVHNAKTKPREEQFNSTYRVVSVLTVLHQDWLNGKEYKCKVSNKGLPSSIEKTISKAKGQPREPQVCTLPPSQEEMTKNQVSLSCAVKGFYPSDIAVEWESNGQPENNYKTTPPVLDSDGSFFLVSRLTVDKSRWQEGNVFSCSVMHEALHNHYTQKSLSLSLGKGGGGSGGGGSEVQLLESGGGLVQPGGSLRLSCAASGFTFGNYDMAWVRQAPGKRPEWVSSIDTGGDITHYADSVKGRFTISRDNAKNTLYLQMNSLRPEDTAVYWCATDEEYALGPNEFDYYGQGTLVTVSS
B3: CIgG4F3A1(G4S)3 (Fc fusion)
chain 1: GPPCPPCPAPEFLGGPSVFLFPPKPKDTLMISRTPEVTCVVVDVSQEDPEVQFNWYVDGVEVHNAKTKPREEQFNSTYRVVSVLTVLHQDWLNGKEYKCKVSNKGLPSSIEKTISKAKGQPREPQVYTLPPCQEEMTKNQVSLWCLVKGFYPSDIAVEWESNGQPENNYKTTPPVLDSDGSFFLYSRLTVDKSRWQEGNVFSCSVMHEALHNHYTQKSLSLSLGKGGGGSGGGGSGGGGSDVQLQESGGGLVQAGGSLKLSCAASRGSLSRWDVAWFRQAPGKERSFVTRISWSGTTSYYADAVKGRFAISRDNAKNTVYLQMNSLKPEDTAVYYCAVALYGNRGYYDVNAHSYWGQGTQVTVS
chain 2: GPPCPPCPAPEFLGGPSVFLFPPKPKDTLMISRTPEVTCVVVDVSQEDPEVQFNWYVDGVEVHNAKTKPREEQFNSTYRVVSVLTVLHQDWLNGKEYKCKVSNKGLPSSIEKTISKAKGQPREPQVCTLPPSQEEMTKNQVSLSCAVKGFYPSDIAVEWESNGQPENNYKTTPPVLDSDGSFFLVSRLTVDKSRWQEGNVFSCSVMHEALHNHYTQKSLSLSLGKGGGGSGGGGSGGGGSEVQLLESGGGLVQPGGSLRLSCAASGFTFGNYDMAWVRQAPGKRPEWVSSIDTGGDITHYADSVKGRFTISRDNAKNTLYLQMNSLRPEDTAVYWCATDEEYALGPNEFDYYGQGTLVTVSS
B4: NIgG4F4A1(RS) (Fc fusion)
chain 1: DVQLQESGGGLVQAGGSLRLSCAVSGLSFSSMGWFRQPPGKEREFVAAISLYSGSTYYADSVKGRFTISSDNAKSTVYLQMNSLKPEDAAVYFCAADRQRTWSTFYASRQATYNYWGQGTQVTVTSRSGPPCPPCPAPEFLGGPSVFLFPPKPKDTLMISRTPEVTCVVVDVSQEDPEVQFNWYVDGVEVHNAKTKPREEQFNSTYRVVSVLTVLHQDWLNGKEYKCKVSNKGLPSSIEKTISKAKGQPREPQVYTLPPCQEEMTKNQVSLWCLVKGFYPSDIAVEWESNGQPENNYKTTPPVLDSDGSFFLYSRLTVDKSRWQEGNVFSCSVMHEALHNHYTQKSLSLSLGK
chain 2: EVQLLESGGGLVQPGGSLRLSCAASGFTFGNYDMAWVRQAPGKRPEWVSSIDTGGDITHYADSVKGRFTISRDNAKNTLYLQMNSLRPEDTAVYWCATDEEYALGPNEFDYYGQGTLVTVSSRSGPPCPPCPAPEFLGGPSVFLFPPKPKDTLMISRTPEVTCVVVDVSQEDPEVQFNWYVDGVEVHNAKTKPREEQFNSTYRVVSVLTVLHQDWLNGKEYKCKVSNKGLPSSIEKTISKAKGQPREPQVCTLPPSQEEMTKNQVSLSCAVKGFYPSDIAVEWESNGQPENNYKTTPPVLDSDGSFFLVSRLTVDKSRWQEGNVFSCSVMHEALHNHYTQKSLSLSLGK
B5: NIgG4F4A1(G4S)1 (Fc fusion)
chain 1: DVQLQESGGGLVQAGGSLRLSCAVSGLSFSSMGWFRQPPGKEREFVAAISLYSGSTYYADSVKGRFTISSDNAKSTVYLQMNSLKPEDAAVYFCAADRQRTWSTFYASRQATYNYWGQGTQVTVTSGGGGSGPPCPPCPAPEFLGGPSVFLFPPKPKDTLMISRTPEVTCVVVDVSQEDPEVQFNWYVDGVEVHNAKTKPREEQFNSTYRVVSVLTVLHQDWLNGKEYKCKVSNKGLPSSIEKTISKAKGQPREPQVYTLPPCQEEMTKNQVSLWCLVKGFYPSDIAVEWESNGQPENNYKTTPPVLDSDGSFFLYSRLTVDKSRWQEGNVFSCSVMHEALHNHYTQKSLSLSLGK
chain 2: EVQLLESGGGLVQPGGSLRLSCAASGFTFGNYDMAWVRQAPGKRPEWVSSIDTGGDITHYADSVKGRFTISRDNAKNTLYLQMNSLRPEDTAVYWCATDEEYALGPNEFDYYGQGTLVTVSSGGGGSGPPCPPCPAPEFLGGPSVFLFPPKPKDTLMISRTPEVTCVVVDVSQEDPEVQFNWYVDGVEVHNAKTKPREEQFNSTYRVVSVLTVLHQDWLNGKEYKCKVSNKGLPSSIEKTISKAKGQPREPQVCTLPPSQEEMTKNQVSLSCAVKGFYPSDIAVEWESNGQPENNYKTTPPVLDSDGSFFLVSRLTVDKSRWQEGNVFSCSVMHEALHNHYTQKSLSLSLGK
B6: NIgG4F4A1(G4S)2 (Fc fusion)
chain 1: DVQLQESGGGLVQAGGSLRLSCAVSGLSFSSMGWFRQPPGKEREFVAAISLYSGSTYYADSVKGRFTISSDNAKSTVYLQMNSLKPEDAAVYFCAADRQRTWSTFYASRQATYNYWGQGTQVTVTSGGGGSGGGGSGPPCPPCPAPEFLGGPSVFLFPPKPKDTLMISRTPEVTCVVVDVSQEDPEVQFNWYVDGVEVHNAKTKPREEQFNSTYRVVSVLTVLHQDWLNGKEYKCKVSNKGLPSSIEKTISKAKGQPREPQVYTLPPCQEEMTKNQVSLWCLVKGFYPSDIAVEWESNGQPENNYKTTPPVLDSDGSFFLYSRLTVDKSRWQEGNVFSCSVMHEALHNHYTQKSLSLSLGK
chain 2: EVQLLESGGGLVQPGGSLRLSCAASGFTFGNYDMAWVRQAPGKRPEWVSSIDTGGDITHYADSVKGRFTISRDNAKNTLYLQMNSLRPEDTAVYWCATDEEYALGPNEFDYYGQGTLVTVSSGGGGSGGGGSGPPCPPCPAPEFLGGPSVFLFPPKPKDTLMISRTPEVTCVVVDVSQEDPEVQFNWYVDGVEVHNAKTKPREEQFNSTYRVVSVLTVLHQDWLNGKEYKCKVSNKGLPSSIEKTISKAKGQPREPQVCTLPPSQEEMTKNQVSLSCAVKGFYPSDIAVEWESNGQPENNYKTTPPVLDSDGSFFLVSRLTVDKSRWQEGNVFSCSVMHEALHNHYTQKSLSLSLGK
B7: NIgG4F4A1(G4S)3 (Fc fusion)
chain 1: DVQLQESGGGLVQAGGSLRLSCAVSGLSFSSMGWFRQPPGKEREFVAAISLYSGSTYYADSVKGRFTISSDNAKSTVYLQMNSLKPEDAAVYFCAADRQRTWSTFYASRQATYNYWGQGTQVTVTSGGGGSGGGGSGGGGSGPPCPPCPAPEFLGGPSVFLFPPKPKDTLMISRTPEVTCVVVDVSQEDPEVQFNWYVDGVEVHNAKTKPREEQFNSTYRVVSVLTVLHQDWLNGKEYKCKVSNKGLPSSIEKTISKAKGQPREPQVYTLPPCQEEMTKNQVSLWCLVKGFYPSDIAVEWESNGQPENNYKTTPPVLDSDGSFFLYSRLTVDKSRWQEGNVFSCSVMHEALHNHYTQKSLSLSLGK
chain 2: EVQLLESGGGLVQPGGSLRLSCAASGFTFGNYDMAWVRQAPGKRPEWVSSIDTGGDITHYADSVKGRFTISRDNAKNTLYLQMNSLRPEDTAVYWCATDEEYALGPNEFDYYGQGTLVTVSSGGGGSGGGGSGGGGSGPPCPPCPAPEFLGGPSVFLFPPKPKDTLMISRTPEVTCVVVDVSQEDPEVQFNWYVDGVEVHNAKTKPREEQFNSTYRVVSVLTVLHQDWLNGKEYKCKVSNKGLPSSIEKTISKAKGQPREPQVCTLPPSQEEMTKNQVSLSCAVKGFYPSDIAVEWESNGQPENNYKTTPPVLDSDGSFFLVSRLTVDKSRWQEGNVFSCSVMHEALHNHYTQKSLSLSLGK
B8: CIgG4F4A1(RS) (Fc fusion)
chain 1: GPPCPPCPAPEFLGGPSVFLFPPKPKDTLMISRTPEVTCVVVDVSQEDPEVQFNWYVDGVEVHNAKTKPREEQFNSTYRVVSVLTVLHQDWLNGKEYKCKVSNKGLPSSIEKTISKAKGQPREPQVYTLPPCQEEMTKNQVSLWCLVKGFYPSDIAVEWESNGQPENNYKTTPPVLDSDGSFFLYSRLTVDKSRWQEGNVFSCSVMHEALHNHYTQKSLSLSLGKRSDVQLQESGGGLVQAGGSLRLSCAVSGLSFSSMGWFRQPPGKEREFVAAISLYSGSTYYADSVKGRFTISSDNAKSTVYLQMNSLKPEDAAVYFCAADRQRTWSTFYASRQATYNYWGQGTQVTVTS
chain 2: GPPCPPCPAPEFLGGPSVFLFPPKPKDTLMISRTPEVTCVVVDVSQEDPEVQFNWYVDGVEVHNAKTKPREEQFNSTYRVVSVLTVLHQDWLNGKEYKCKVSNKGLPSSIEKTISKAKGQPREPQVCTLPPSQEEMTKNQVSLSCAVKGFYPSDIAVEWESNGQPENNYKTTPPVLDSDGSFFLVSRLTVDKSRWQEGNVFSCSVMHEALHNHYTQKSLSLSLGKRSEVQLLESGGGLVQPGGSLRLSCAASGFTFGNYDMAWVRQAPGKRPEWVSSIDTGGDITHYADSVKGRFTISRDNAKNTLYLQMNSLRPEDTAVYWCATDEEYALGPNEFDYYGQGTLVTVSS

Target: T1, recombinant human IgE (human, UniProt P01854-1 1-428)
T1 construct: made in-house (ALK); preloaded on immobilised FcεRIα in the displacement ELISA
T1 sequence (P01854 other isoform, or with tags, fused parts or gaps): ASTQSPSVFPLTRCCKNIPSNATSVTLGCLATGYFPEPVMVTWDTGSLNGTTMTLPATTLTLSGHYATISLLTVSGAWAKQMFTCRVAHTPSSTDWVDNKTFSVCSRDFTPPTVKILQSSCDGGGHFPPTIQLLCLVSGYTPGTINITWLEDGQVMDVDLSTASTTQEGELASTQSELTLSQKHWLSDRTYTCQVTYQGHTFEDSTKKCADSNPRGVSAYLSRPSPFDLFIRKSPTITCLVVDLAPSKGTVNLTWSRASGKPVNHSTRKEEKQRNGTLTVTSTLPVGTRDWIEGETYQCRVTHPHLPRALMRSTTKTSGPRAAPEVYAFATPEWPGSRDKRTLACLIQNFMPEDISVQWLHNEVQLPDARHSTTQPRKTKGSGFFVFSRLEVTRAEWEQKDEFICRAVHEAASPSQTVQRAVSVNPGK
Assay: IgE-FcεRIα displacement ELISA
How it was run: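 sdAbs at pM–μM were incubated 1 h on preformed complexes of 13 ng/ml recombinant human IgE with avi-tag-biotinylated human FcεRIα captured on streptavidin.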

Binder | EC50 [nM] | Max effect [%]
B1 | 1000 | 50
B2 | 41 | 80
B3 | 24 | 90
B4 |  | > 95
B5 |  | > 95
B6 |  | > 95
B7 |  | > 95
B8 | 90 | 70
